Results: publication PMC9687980

Target: human Fc fusion angiotensin-converting enzyme 2 (hACE2-Fc) (human) (UniProt Q9BYF1)
Test: BLI

human Fc fusion angiotensin-converting enzyme 2 (hACE2-Fc) (human), sequence (Q9BYF1 18-740): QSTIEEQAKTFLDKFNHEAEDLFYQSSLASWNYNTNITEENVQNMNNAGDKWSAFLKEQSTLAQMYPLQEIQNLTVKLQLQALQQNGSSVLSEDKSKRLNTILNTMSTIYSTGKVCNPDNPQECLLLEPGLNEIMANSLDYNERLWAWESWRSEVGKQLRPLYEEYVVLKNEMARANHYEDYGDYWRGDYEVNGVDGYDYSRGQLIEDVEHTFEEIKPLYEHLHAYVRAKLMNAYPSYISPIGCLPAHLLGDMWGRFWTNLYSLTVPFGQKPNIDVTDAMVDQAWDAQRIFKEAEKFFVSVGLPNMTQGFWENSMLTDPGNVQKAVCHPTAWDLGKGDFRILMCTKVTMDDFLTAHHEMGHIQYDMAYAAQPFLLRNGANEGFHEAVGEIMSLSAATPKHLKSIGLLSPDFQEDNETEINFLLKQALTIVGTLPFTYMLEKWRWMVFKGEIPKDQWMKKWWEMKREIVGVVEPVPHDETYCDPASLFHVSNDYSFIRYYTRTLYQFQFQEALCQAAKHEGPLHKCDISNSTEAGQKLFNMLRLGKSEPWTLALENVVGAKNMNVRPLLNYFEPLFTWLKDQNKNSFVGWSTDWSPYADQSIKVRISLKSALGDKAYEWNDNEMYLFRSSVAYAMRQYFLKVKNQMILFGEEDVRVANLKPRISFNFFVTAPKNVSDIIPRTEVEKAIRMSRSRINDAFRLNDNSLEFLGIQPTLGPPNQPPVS

Substance	Kd	koff	kon
MBP-fused spike receptor binding domain of SARS-CoV-2 Omicron BA.1 (MBP-RBDomi) (domain or fragment)	10.1 nM	0.00174 s⁻¹	172000 M⁻¹ s⁻¹
spike RBD of SARS-CoV-2 Omicron expressed in a mammalian system (domain or fragment)	7.16 nM	0.00161 s⁻¹	226000 M⁻¹ s⁻¹
